Laboratory results as given in article doi:10.1101/2020.10.08.331538 (bioRxiv, 2020).
Values joined by “and” are separate entries in the source; they are usually repeats but may differ in a detail not shown here. Equal values may be shown once.

Legend:
[1] = target: Pv-M17Δ53-78, Pv-M17 N-terminal loop deletion mutant (Plasmodium vivax) (UniProt A5K3U9); experiment: crystal structure
AUC [2] = target: the molecule itself; experiment: AUC
AUC [3] = target: the molecule itself; experiment: AUC; remark: listed apart in the source
SEC-MALS = target: the molecule itself; experiment: SEC-MALS
SEC = target: the molecule itself; experiment: SEC
AUC [4] = target: the molecule itself; experiment: AUC; remark: listed apart in the source

Molecule: Pv-M17Δ53-78, Pv-M17 N-terminal loop deletion mutant (from UniProt A5K3U9 73-621) (enzyme)
- stoichiometry N [1]: 6

B1: PfA-M17, M17 aminopeptidase from Plasmodium falciparum, wild type (enzyme)
chain: MASEVPQVVSLDPTSIPIEYNTPIHDIKVQVYDIKGGCNVEEGLTIFLVNNPGKENGPVKISSKVNDKNVSEFLKDENMEKFNVKLGTSKHFYMFNDNKNSVAVGYVGCGSVADLSEADMKRVVLSLVTMLHDNKLSKLTVVFEINVDKNLFRFFLETLFYEYMTDERFKSTDKNVNMEYIKHLGVYINNADTYKEEVEKARVYYFGTYYASQLIAAPSNYCNPVSLSNAAVELAQKLNLEYKILGVKELEELKMGAYLSVGKGSMYPNKFIHLTYKSKGDVKKKIALVGKGITFDSGGYNLKAAPGSMIDLMKFDMSGCAAVLGCAYCVGTLKPENVEIHFLSAVCENMVSKNSYRPGDIITASNGKTIEVGNTDAEGRLTLADALVYAEKLGVDYIVDIATLTGAMLYSLGTSYAGVFGNNEELINKILNSSKTSNEPVWWLPIINEYRATLNSKYADINNISSSVKASSIVASLFLKEFVQNTAWAHIDIAGVSWNFKARKPKGFGVRLLTEFVLNDAL
- stoichiometry N (AUC [2]): 2
- stoichiometry N (AUC [3]): 6
- stoichiometry N (SEC-MALS): ~6

B2: PfA-M17 (D379A + E461L) (enzyme)
chain: MASEVPQVVSLDPTSIPIEYNTPIHDIKVQVYDIKGGCNVEEGLTIFLVNNPGKENGPVKISSKVNDKNVSEFLKDENMEKFNVKLGTSKHFYMFNDNKNSVAVGYVGCGSVADLSEADMKRVVLSLVTMLHDNKLSKLTVVFEINVDKNLFRFFLETLFYEYMTDERFKSTDKNVNMEYIKHLGVYINNADTYKEEVEKARVYYFGTYYASQLIAAPSNYCNPVSLSNAAVELAQKLNLEYKILGVKELEELKMGAYLSVGKGSMYPNKFIHLTYKSKGDVKKKIALVGKGITFASGGYNLKAAPGSMIDLMKFDMSGCAAVLGCAYCVGTLKPENVEIHFLSAVCENMVSKNSYRPGDIITASNGKTIEVGNTDALGRLTLADALVYAEKLGVDYIVDIATLTGAMLYSLGTSYAGVFGNNEELINKILNSSKTSNEPVWWLPIINEYRATLNSKYADINNISSSVKASSIVASLFLKEFVQNTAWAHIDIAGVSWNFKARKPKGFGVRLLTEFVLNDAL
- binding result (AUC [2]): binds

B3: Pv-M17, M17 aminopeptidase from Plasmodium vivax, wild type (residues 73 – 621) (enzyme)
chain: MATTVPQVVSLDPTTIPIDYHTPIDDLSIEVKDISAEACPADEGLIVFLLNSAPKHSSSGGSGGNGGSAGSSGNGEGGAQIKINSSVKDNTINEFLKEGNMENFTGKLGTSKSFYIANDQKKYVSLAYVGCGPANEETELEIRKVAYALVTLLHDSKHKKVSIIFEIKIEEALFRFFLEHLFYEYVTDERFKSADKSTETDFIKNLSLHIANADAYKGQIDKARVYFYGTYYAAQLIAAPSNYCNPVSLSNAAVELAQKVNLECKILDVKELEELKMGAYLSVGKGSMYPNKFIHLTYKGAQTGASQNEKKKIALIGKGITFDSGGYNLKAAPGSMIDLMKFDMSGCAAVLGCAYCIGTIKPDNVEVHFLSAVCENMVSKNSYRPGDIITASNGKTIEVGNTDAEGRLTLADALVYAEKLGVDYIVDIATLTGAMLYSLGTSYAGVFGNNDQLINKILSSSKTSNEPVWWLPIINEYRSSLNSKYADLNNISSSVKASSVVASLFLKEFIENTPWAHIDIAGVSWNFKARKPKGFGVRLLTEFVLNDAV
- stoichiometry N (SEC): 4
- stoichiometry N (AUC [2]): 2
- stoichiometry N (AUC [4]): 6
- stoichiometry N (SEC-MALS): ~6 and ~2
